The results in this text go back to US20020058267A1 (Pfizer, published 2002).

Experiment [1] deals with forty-residue β-amyloid peptide (human Aβ), aged (aggregated) unless said otherwise (human) (UniProt P05067). The experiment in a line: cell-based or functional assay.
Experiment [2] deals with T1, human BAP42 fused to the Gal4 DNA-binding domain (BAP^BD; expression plasmid pEK162) (yeast; human, UniProt P04386 1-147; P05067 672-713).
T1 construct: The screening strain also expressed free BAP42 (pEK149); also called BAP fusion protein; human BAP fusion protein
The experiment in a line: yeast 2-hybrid. On the procedure:
These fusion proteins were assayed with the BAP fusion protein and responses compared to those of strains expressing the larger BBP1Δtm protein. The BBP1ΔC protein induced a weak Y2H response (compare BBP1ΔC to vector, FIG. 4), but the BBP1ΔN protein, containing the first tm domain and adjacent amino-proximal sequences produced a response only slightly weaker than that observed with BBP1Δtm.
Bioassays: Strains were grown overnight in 2 ml SC medium lacking leucine and tryptophan to a density of approximately 7×10⁷ cells per ml. Cells were counted and 10-fold serial dilutions made from […] in sterile water. These samples were spotted in 5 μl aliquots on SC medium lacking leucine, tryptophan and histidine and containing 25 mM 3-amino-triazole. Plates were incubated at 30° C. for 2 to 3 days. Positive protein/protein interactions were identified by increased prototrophic growth compared to control strains expressing the Gal4 DNA-binding domain fusion protein plus an irrelevant transcriptional activation domain fusion protein (or simply containing the pACT vector without inserted sequences). This assay method was highly reproducible and provided for the detection of subtle inductions of growth mediated by the specific interaction between target proteins. […]

In experiment [3] the target is T2, BBP1 intracellular loop (pOZ339), Gal4 DNA-binding domain fusion (yeast; human, UniProt P04386 1-147).
T2 construct: also called BBP1 intracellular region; predicted intracellular domain of BBP1
The experiment in a line: yeast 2-hybrid, two independently derived clones of each strain against vector. From the text:
BBP1ΔC was made by using the pACT2-specific oligo #6 with antisense oligo #9 (5′-CTCGAG TCAAGATATGGGCTTGAAAAAAC). After TA cloning, isolation of the EcoRI-XhoI fragment and cloning into pACT2, the resultant plasmid, pEK219, expressed BBP1 from residue 68 to 175. Sequences encoding the BBP1 intracellular loop were amplified using oligonucleotides #10 (5′-CCTTCC ATGGAAGTGGCAGTCGCATTGTCT) plus #11 (5′-[…] TCAAAACCCTACAGTGCAAAAC). This product, containing BBP1 codons 185 to 217, was digested with NcoI+XhoI and cloned into pAS2 cleaved with NcoI +SalI to generate pOZ339. Construction of all Gα protein expression plasmids utilized the BamHI site near the center of each rat cDNA sequence as the site of fusion in pACT2 (Kang, Y. -S., Kane, J., Kurjan, J., Stadel, J., and Tipper, D. (1990) Mol Cell Biol 10, 2582-2590). Sense primers annealed to sequences 5′ of the BamHI site; antisense primers annealed to sequences 3′ of the stop codon and included a SalI restriction site. Primers were: […]
Structural analysis of BBP1 indicated it contained a structural motif known to be a Gα protein activating sequence in the related G protein-coupled receptors. […] The predicted intracellular domain of BBP1 was expressed as a Gal4 DNA-binding domain with portions of rat Gαs, Gαo, or Gαl2 expressed as Gal4 activation domain fusion proteins. […]

In experiment [1], “BBP1 expressed in transfected cells from the BBP1 expression plasmid pBBP (pOZ363) (receptor)” registered a % apoptotic nuclei, Ntera2 neurons, 10 µM aged Aβ for 48 hrs of 22.3%; a % apoptotic nuclei, Ntera2 stem cells, 10 µM aged Aβ for 48 hrs of 12.3%; a cell viability after aggregated Aβ peptide for 48 hrs (loss of total cells) (% of total cells) of 22.

B1: BBP1ΔN (pEK216), Gal4 activation domain fusion (other, not shown: small tags and cut ends)
chain: PKINDATQEPVNCTNYTAHVSCFPAPNITCKDSSGNETHFTGNEVGFFKPISCRNVNGYSYKVAVALSLFLGWLGADRF
notes: Encodes the first tm domain plus the preceding 52 amino acids; also called BBP1?N (so in the source); ?N construct
Regarding B1, in experiment [2], the binding result was “binds”.

B2: rat Gαi2 C-terminal region (pOZ348), Gal4 activation domain fusion (other, UniProt P04897 213-355, looked up, not shown: large carriers)
chain: IHCFEGVTAIIFCVALSAYDLVLAEDEEMNRMHESMKLFDSICNNKWFTDTSIILFLNKKDLFEEKITQSPLTICFPEYTGANKYDEAASYIQSKFEDLNKRKDTKEIYTHFTCATDTKNVQFVFDAVTDVIIKNNLKDCGLF
notes: range 213-355; also called Gai2
As for B2, the binding result in experiment [3] is listed as “binds”.

B3: rat Gαs C-terminal region (pOZ345), Gal4 activation domain fusion (other, UniProt P63095 235-394, looked up, not shown: large carriers)
chain: IQCFNDVTAIIFVVASSSYNMVIREDNQTNRLQEALNLFKSIWNNRWLRTISVILFLNKQDLLAEKVLAGKSKIEDYFPEFARYTTPEDATPEPGEDPRVTRAKYFIRDEFLRISTASGDGRHYCYPHFTCAVDTENIRRVFNDCRDIIQRMHLRQYELL
notes: range 235-394; also called Gas
As for B3, the binding result in experiment [3] was “binds”.
